# In patent US9314499:
# T1: Histidine-tagged recombinant human Annexin A2
# T1 chain: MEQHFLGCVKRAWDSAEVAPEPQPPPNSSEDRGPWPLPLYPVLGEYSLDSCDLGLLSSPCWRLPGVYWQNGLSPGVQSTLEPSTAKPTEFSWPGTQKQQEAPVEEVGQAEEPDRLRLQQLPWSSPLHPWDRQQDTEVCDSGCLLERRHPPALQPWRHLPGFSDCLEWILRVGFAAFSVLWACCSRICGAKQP
# B1: tissue plasminogen activator (protein)
# chain: SYQVICRDEKTQMIYQQHQSWLRPVLRSNRVEYCWCNSGRAQCHSVPVKSCSEPRCFNGGTCQQALYFSDFVCQCPEGFAGKCCEIDTRATCYEDQGISYRGTWSTAESGAECTNWNSSALAQKPYSGRRPDAIRLGLGNHNYCRNPDRDSKPWCYVFKAGKYSSEFCSTPACSEGNSDCYFGNGSAYRGTHSLTESGASCLPWNSMILIGKVYTAQNPSAQALGLGKHNYCRNPDGDAKPWCHVLKNRRLTWEYCDVPSCSTCGLRQYSQPQFRIKGGLFADIASHPWQAAIFAKHRRSPGERFLCGGILISSCWILSAAHCFQERFPPHHLTVILGRTYRVVPGEEEQKFEVEKYIVHKEFDDDTYDNDIALLQLKSDSSRCAQESSVVRTVCLPPADLQLPDWTECELSGYGKHEALSPFYSERLKEAHVRLYPSSRCTSQHLLNRTVTDNMLCAGDTRSGGPQANLHDACQGDSGGPLVCLNDGRMTLVGIISWGLGCGQKDVPGVYTKVTNYLDWIRDNMRP
# Molecular target: T1, Histidine-tagged recombinant human …
protein,measurement,value
B1,"tPA-converted plasmin generation (in vitro plasmin activity assay, fluorogenic substrate D-Val-Leu-Lys-AMC)",a combination of rA2 (5 µg/ml) and tPA (2.5 µg/ml) significantly amplified tPA-converted plasmin generation
